Assay results published in patent US20140162285A1, “Methods of Modulating Vesicular Trafficking” (The General Hospital Corporation, priority 2009, published 2014).
Entries after “also recorded” stand apart in the source; their conditions may differ. Ends that are not written are not given here. * marks the point of attachment. Biotin = O=C1N[C@H]2[C@H](CS[C@H]2CCCCC(=O)*)N1

T1: GST-ARNO(wt) (Homo sapiens, UniProt Q99418)
T1 construct: i) 1-400aa, full length ARNO(wt); made in house; host or cells: E. coli BL21(DE3)
T1 sequence (Q99418 1-400): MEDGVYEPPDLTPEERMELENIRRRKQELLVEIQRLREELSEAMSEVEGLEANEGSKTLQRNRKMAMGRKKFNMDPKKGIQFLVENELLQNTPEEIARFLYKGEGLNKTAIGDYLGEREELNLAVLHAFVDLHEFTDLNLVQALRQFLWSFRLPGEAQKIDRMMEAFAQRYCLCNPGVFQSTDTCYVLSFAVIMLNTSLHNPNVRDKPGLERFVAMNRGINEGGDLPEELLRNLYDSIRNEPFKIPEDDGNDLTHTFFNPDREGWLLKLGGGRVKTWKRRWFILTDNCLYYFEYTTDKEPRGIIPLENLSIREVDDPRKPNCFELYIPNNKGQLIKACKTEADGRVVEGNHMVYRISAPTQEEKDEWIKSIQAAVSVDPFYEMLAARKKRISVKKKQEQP

T2: 6His-a2N(wt) (Mus musculus, UniProt P15920)
T2 construct: amino acid residues 1-402 of mouse V-ATPase a2-subunit (a2N1-402); made in house; host or cells: cell-free in vitro translation
T2 sequence (P15920 1-402): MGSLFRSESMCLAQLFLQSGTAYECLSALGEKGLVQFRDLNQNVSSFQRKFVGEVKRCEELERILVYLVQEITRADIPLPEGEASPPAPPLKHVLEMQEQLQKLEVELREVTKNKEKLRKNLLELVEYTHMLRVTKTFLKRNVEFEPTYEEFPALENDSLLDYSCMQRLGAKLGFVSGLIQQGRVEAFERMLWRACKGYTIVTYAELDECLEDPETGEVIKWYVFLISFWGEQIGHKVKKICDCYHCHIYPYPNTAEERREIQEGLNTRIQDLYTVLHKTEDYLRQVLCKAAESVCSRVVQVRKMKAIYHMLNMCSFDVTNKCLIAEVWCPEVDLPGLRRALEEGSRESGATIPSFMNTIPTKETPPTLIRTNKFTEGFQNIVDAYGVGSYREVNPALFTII

T3: purified 6His-a2N (recombinant a2N protein, a2N1-402, expressed in E. coli and refolded) (mouse, UniProt P15920 1-402)
T3 construct: Immobilised by amine coupling on a CM4 chip for SPR; also called a2N(wt); a2N-His6(wt)
T3 sequence: T2 sequence (P15920 1-402)

B1: GST-ARNO(wt) (other, human, UniProt Q99418 1-400, looked up)
chain: T1 sequence (Q99418 1-400)
notes: range 1-400; Double-tagged construct (N-terminal GST, C-terminal 6xHis); also called full length ARNO(wt); wild-type ARNO; not shown: N-terminal GST-tag from the pGEX6P-1 vector; C-terminal 6xHis-tag

Tests used:
GST-ARNO(wt) = target: T1, GST-ARNO(wt); test: a2N-derived peptide pull-down assay with GST-ARNO(wt); type: binding; design: key to interaction with ARNO (asterisk mark in Table 1): The interacting peptides are indicated in bold with an asterisk (*); conditions: for interaction of a2N-derived peptide with GST-ARNO(wt) in pull-down: Western blot anti-GST, GST-only as control; for interaction with ARNO (asterisk mark in Table 1): biotin-tagged peptides on streptavidin beads
Procedure: FIG. 2A is an image of a Western blot showing the results of an a2N-derived peptide pull-down assay. The indicated a2N-derived peptides were immobilized on streptavidin-beads and incubated with purified recombinant GST-ARNO(wt). Interacting complexes were eluted and analyzed by Western blotting using monoclonal anti-GST antibodies.
FIG. 2B is an image of a Western blot showing the results of a pull-down assay with selected a2N-derived interacting peptides incubated with either GST (negative control) or GST-ARNO(wt). The first two lanes show the patterns obtained when either GST-only (lane 1) or GST-ARNO(wt) (lane 2) were loaded onto the gel.
Peptides were synthesized, purified by HPLC and analyzed by mass spectrometry in the MGH Peptide/Protein Core Facility. All a2N-derived peptides were synthesized with a biotin-tag on the N-terminus for immobilization on streptavidin-agarose beads and with an additional C-terminal cysteine residue for immobilization on beads using sulfhydryl-specific crosslinkers. A peptide corresponding to the PB-domain of ARNO was synthesized containing either a non-phosphorylated or a phosphorylated Ser392 residue. Peptide stock solutions were prepared in DMSO at 5 mM concentration and stored at −20° C. […]

6His-a2N(wt) = target: T2, 6His-a2N(wt); test: ARNO-derived peptide pull-down with in vitro translated 6His-a2N(wt); type: binding; conditions: 7 nmol biotin-tagged peptide on streptavidin-agarose beads
Procedure: FIGS. 4B-C are images of Western blots showing (4B) the results of peptide pull-down assays for interaction of a2N with Sec7-PH-linker of ARNO and (4C) phosphorylation-dependent interaction of a2N with ARNO-derived peptide corresponding to the PB-domain of ARNO. Corresponding ARNO-derived peptides were immobilized on streptavidin-beads and incubated with in vitro translated recombinant a2N. Interacting complexes were eluted and analyzed by Western blotting using anti-a2N antibodies.
ARNO-derived peptides, equal amounts (7 nmol) of biotin-tagged synthetic peptides were also immobilized on streptavidin-agarose beads followed by incubation with 10 μl of in vitro translated 6His-a2N(wt) recombinant protein. Pull-down experiments and SDS-PAGE analysis were performed as described above and interacting 6His-a2N/ARNO-derived-peptide complexes were analyzed by Western blotting using polyclonal anti-a2N antibody. All experiments were repeated at least three times with similar results.

GST-only = target: T4, GST-only (UniProt P08515 1-218 = GST); test: peptide pull-down: biotinylated peptide on streptavidin-agarose beads, GST-only in solution, Western blot with anti-GST antibody
T4 construct: Control bait/prey in pull-down assays; also called GST (negative control)
T4 sequence (P08515 whole entry): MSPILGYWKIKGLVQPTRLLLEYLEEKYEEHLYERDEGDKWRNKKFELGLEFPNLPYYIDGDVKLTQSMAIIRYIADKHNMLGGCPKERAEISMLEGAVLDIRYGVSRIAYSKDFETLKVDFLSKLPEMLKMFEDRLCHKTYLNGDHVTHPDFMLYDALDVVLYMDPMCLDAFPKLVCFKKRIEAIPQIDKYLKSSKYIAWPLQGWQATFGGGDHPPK
Procedure: FIGS. 5A-C are a set of three images of Western blots showing the identification of interaction motif of a2N that is involved in specific binding with the Sec7 domain of ARNO. 5A, The catalytic Sec7 domain of ARNO interacts with two a2N-derived peptides, a2N-01 and a2N-03, in pull-down experiments. The peptide pull-down assay was performed with six a2N-derived interaction peptides immobilized on streptavidin-beads and incubated with purified recombinant GST-only or GST-Sec7 domain. Interacting complexes were eluted and analyzed by Western blotting using monoclonal anti-GST antibodies as described below. The loading controls for GST-only (lane 1) or GST-Sec7 (lane 2) are shown. 5B, 5C: Peptide a2N-01 specifically interacts with Sec7 but not PH-domain (5B) or PB-domain (5C) of ARNO. The peptide pull-down assay was performed with peptides a2N-01 and a2N-03 immobilized on streptavidin-beads and incubated with purified recombinant GST-PH domain (5B) or GST-PB domain (5C). Interacting complexes were eluted and analyzed by Western blotting using monoclonal anti-GST antibodies. The loading control of GST-PH-domain (5B) or GST-PB-domain (5C) is shown on the left.
These a2N-derived peptides were immobilized by an N-terminal biotin-tag, which ensured the same efficiency and equivalent binding to streptavidin-agarose beads. Simultaneous pull-down experiments with immobilized peptides were performed using highly purified recombinant GST-only or GST-Sec7-6His as described below. […] To remove unbound peptides, beads were collected by centrifugation and washed in 500 μl ice-cold binding buffer. Next, equal amounts (20 pmoles) of highly purified recombinant GST-only or GST-Sec7-6His were added to the beads containing immobilized peptides and incubated for 2 hours at 4° C. in 500 μl of binding buffer. After washing beads four times in ice-cold binding buffer, the interacting complexes were eluted by boiling in SDS-PAGE sample buffer for 10 min at 95° C., resolved by SDS-PAGE and analyzed by Western blotting using monoclonal anti-GST antibody.

[1] = target: T3, purified 6His-a2N (recombinant a2N …); test: SPR (BIAcore T100), a2N immobilised on CM4 chip, ARNO(wt) as analyte, bivalent analyte fit
Procedure: All reagents, including buffers, sensor chips and the amine coupling kit, were obtained from GE Healthcare. For kinetic analysis of the binding of ARNO(wt) with a2N(wt), purified 6His-a2N (5 μg/ml) in 10 mM sodium acetate (pH 4.0) was immobilized at 80 response units (RU) on a CM4 sensor chip using an amine coupling kit according to the manufacturer's instructions. The same kit was used to perform blank immobilization to create a reference surface on the same chip. Samples of purified GST-ARNO(wt) at concentrations ranging from 0.25-4 μM were injected for 6 min over active and reference surfaces at a flow rate of 30 μl/min in NBS-EP, 1 mM DTT running buffer (10 mM Hepes, pH 7.4, 150 mM NaCl, 3 mM EDTA, 0.05% Surfactant P20, 1 mM DTT). For kinetic analysis of the binding of the ARNO Sec7-domain with a2N-01 peptide, neutravidin (10 μg/ml) in 10 mM sodium acetate (pH 5.0) was immobilized at about 1200 RU on two surfaces of a CM4 sensor chip using an amine coupling kit. Following that, biotinylated a2N-01 peptide (50 RU) and amine-PEG₃-biotin (25 RU) were irreversibly captured by neutravidin to create active and a reference surfaces, respectively. Purified Sec7-6His recombinant protein was injected for 3.5 min over active and reference surfaces at concentrations ranging from 0.05-1 μM and a flow rate of 100 μl/min in NBS-EP, 1 mM DTT running buffer. Dissociation of the complexes was monitored for 10 min, and then the regeneration of the sensor surfaces was performed using 0.05% SDS with 1-min injection in the running buffer at a 20 μl/min flow rate. BIAcore™ T100 Evaluation software was used to calculate the association and dissociation rate constants (kₒₙ and koff) with a 1:1 fitting model. The dissociation constant (KD) was determined from the kₒₙ/koff values. To estimate affinity of interaction the corresponding free energy of binding ΔGbind=RTlnKD was calculated as previously described (Marles et al., Mol Cell 14 (2004) 813-823).
Specific concentration-dependent responses were obtained for both interactions. […]

Molecule	interaction of a2N-derived peptide with GST-ARNO(wt) in pull-down (GST-ARNO(wt))	interaction with ARNO (asterisk mark in Table 1) (GST-ARNO(wt))	binding result (GST-only)	also measured
Bio-KHVLEMQEQLQKLEVELREVTKNKEKLRKNLLELVE-Cys (KHVLEMQEQLQKLEVELREVTKNKEKLRKNLLELVEC) [a2N-06, AA 92-127, predicted CC-domain of a2N]	did not bind			
Bio-ETGEVIKWYVFLISFW-Cys (ETGEVIKWYVFLISFWC) [a2N-12, AA 215-230 of a2N]	specific interaction; also recorded: capable of interaction with ARNO	Bio-ETGEVIKWYVFLISFW-Cys *		
Sec7/PH-linker: peptide corresponding to the Sec7/PH-linker region (242-261aa) of ARNO, SEQ ID NO:31 (PFKIPEDDGNDLTHTFFNPD)				interaction of ARNO-derived peptide with a2N (6His-a2N(wt)): reproducibly observed
ARNO375-400: biotinylated non-phosphorylated peptide covering the PB-domain of ARNO plus four PH/PB-linker amino acids, SEQ ID NO:32 (VSVDPFYEMLAARKKRISVKKKQEQP; also: biotinylated, site not given here)				interaction of ARNO-derived peptide with a2N (6His-a2N(wt)): direct interaction
Bio-GYTIVTYAELDECLEDP-Cys (GYTIVTYAELDECLEDPC) [a2N-11, AA 198-214 of a2N]	specific interaction; also recorded: capable of interaction with ARNO	Bio-GYTIVTYAELDECLEDP-Cys *		
Bio-YGVGSYREVNPALFTII-Cys (YGVGSYREVNPALFTIIC) [a2N-22, AA 386-402 of a2N]	specific interaction; also recorded: capable of interaction with ARNO	Bio-YGVGSYREVNPALFTII-Cys *		
Bio-NMCSFDVTNKCLIAEVWCP-Cys (NMCSFDVTNKCLIAEVWCPC) [a2N-18, AA 313-331 of a2N]	specific interaction; also recorded: capable of interaction with ARNO	Bio-NMCSFDVTNKCLIAEVWCP-Cys *		
Biotin-ETGEVIKWYVFLISFWC (also called a2N215-230) [a2N-12]			no binding	
Biotin-YGVGSYREVNPALFTIIC [a2N-22]			no binding	
Biotin-GYTIVTYAELDECLEDPC (cysteine pairing not given here, also called a2N198-214) [a2N-11]			no binding	
Biotin-NMCSFDVTNKCLIAEVWCPC (cysteine pairing not given here, also called a2N313-331) [a2N-18]			no binding	
Biotin-VQFRDLNQNVSSFQRC (also called a2N35-49) [a2N-03]			no binding	
B1				Kd [1]: 313 nM; koff [1]: 0.0015 s⁻¹; kon [1]: 4770 M⁻¹ s⁻¹
